33 molecules from publication PMC7642358 (Nature Communications, 2020) can be followed below.

The target in the experiment is SARS-CoV-2 spike receptor-binding domain (2019-nCoV RBD-SD1, residues 319–566) (SARS-CoV-2, UniProt P0DTC2).

Where a chain is given by its changes, count along the chain named.

B1: 64 (VHH)
VHH: QVQLVESGGGLVQAGGSLRLSCAASGFPVYNRYMLWYRQAPGKEREWVAAITSYGYHTTYADSVKGRFTISRDNAKNTVYLQMNSLKPEDTAVYYCNVKDYGQHQQVYDYWGQGTQVTVS
Regarding B1, the binding result is “binds”.

B2: 39 (VHH)
VHH: QVQLVESGGGPVQAGGSLRLSCAASGFPVMWSHMHWYRQAPGKEREWVAAIVSYGAYTIYADSVKGRFTISRDNAKNTVYLQMNSLKPEDTAVYYCNVKDFGGYRYYYDYWGQGTQVTVS
For the molecule B2, the binding result is “binds”.

B3: 47 (VHH)
VHH: B2 VHH with P11L, M30V, S32A, V52T, Y54E, Y57H, F101W, G103T, R105S, Y106T
B3: the binding result is given as “binds”.

B4: 67 (VHH)
VHH: B2 VHH with P11L, S32A, H35A, Y54A, I59H, F101W, G103T, R105N, Y106S
As for B4, the binding result is reported as “binds”.

B5: 53 (VHH)
VHH: QVQLVESGGGLVQAGGSLRLSCAASGFPVYATVMHWYRQAPGKEREWVAAIYSTGMWTLYADSVKGRFTISRDNAKNTVYLQMNSLKPEDTAVYYCNVKDEGYDYYYYDYWGQGTQVTVS
Consider B5, for which the binding result is on record as “binds”.

B6: 58 (VHH)
VHH: QVQLVESGGGLVQAGGSLRLSCAASGFPVDAAWMEWYRQAPGKEREWVAAITSYGYRTYYADSVKGRFTISRDNAKNTVYLQMNSLKPEDTAVYYCNVKDMDRWRTTYDYWGQGTQVTVS
Take B6: the binding result is reported as “binds”.

B7: 44 (VHH)
VHH: QVQLVESGGGLVQAGGSLRLSCAASGFPVERKHMLWYRQSPGKEREWVAAIVSYGNYTTYADSVKGRFTISRDNAKNTVYLQMNSLKPEDTAVYYCNVKDHGFNTVLYDYWGQGTQVTVS
As to B7, the binding result is on record as “binds”.

B8: 68 (VHH)
VHH: QVQLVESGGGSVQAGGSLRLSCAASGTITNIGYLGWFRQAPGKEREGVAALKTYDGYTYYADSVKGRFTVSLDNAKNTVYLQMNSLKPEDTALYYCAAARHGRDEPLSYMYYSYWGQGTQVTVS
For the molecule B8, the binding result is given as “binds”.

B9: 73 (VHH)
VHH: B8 VHH with T27K, T29Y, N30Q, K52M, Y54T, D104E, E105R, S108H, M110W
B9: the binding result is recorded as “binds”.

B10: 60 (VHH)
VHH: QVQLVESGGGLVQAGGSLRLSCAASGFPVVAWQMTWYRQAPGKEREWVAAIRSFGVSTHYADSVKGRFTISRDNAKNTVYLQMNSLKPEDTAVYYCNVKDWGYEYEGYDYWGQGTQVTVS
For B10, the binding result is reported as “binds”.

B11: 77 (VHH)
VHH: QVQLVESGGGSVQAGGSLRLSCAASGSISSITYLGWFRQAPAKSVRAVAALDTEQGETYYADSVKGRFTVSLDNAKNTVYLQMNSLKPEDTALYYCAAANQHGGYYPLDSAWYTYWGQGTQVTVS
Consider B11, for which the binding result was “binds”.

B12: 48 (VHH)
VHH: QVQLVESGGGLVQAGGSLRLSCAASGFPVAHWWMEWYRQAPGKEREWVAAIFSEGNWTHYADSVKGRFTISRDNAKNTVYLQMNSLKPEDTAVYYCNVKDTGATQFAYDYWGQGTQVTVS
Regarding B12, the binding result is “binds”.

B13: 78 (VHH)
VHH: QVQLVESGGGSVQAGGSLRLSCAASGYIKSIKYLGWFRQAPGKEREGVAALMTRYGETYYADSVKGRFTVSLDNAKNTVYLQMNSLKPEDTALYYCAAANYGNNWPLTGVNYWYWGQGTQVTVS
As for B13, the binding result is “binds”.

B14: 75 (VHH)
VHH: QVQLVESGGGSVQAGGSLRLSCAASGYINQIYYLGWFRQAPGKEREGVAALNTYQGQTYYADSVKGRFTVSLDNAKNTVYLQMNSLKPEDTALYYCAAARWGRDEPLYHYYYSYWGQGTQVTVS
With B14, the binding result was “binds”.

B15: 79 (VHH)
VHH: B14 VHH with N29H, Q30T, Y32E, N52Y, Y54L, Q55K, E105T, Y108H, H109Y, Y110Q
For B15, the binding result is reported as “binds”.

B16: 46 (VHH)
VHH: QVQLVESGGGLVQAGGSLRLSCAASGFPVNYTIMFWYRKAPGKEREWVAAIKSHGATTLYADSVKGRFTISRDNAKNTVYLQMNSLKPEDTAVYYCNVKDVGNDQKSYDYWGQGTQVTVS
B16: the binding result is given as “binds”.

B17: 62 (VHH)
VHH: QVQLVESGGGLVQAGGSLRLSCAASGFPVEQEHMYWYRQASGKEREWVAAIVSEGAYTAYADSVKGRFTISRDNAKNTVYLQMNSLKPEDTAVYYCNVKDWGGYQWYYDYWGQGTQVTVS
As to B17, the binding result is “binds”.

B18: 49 (VHH)
VHH: QVQLVESGGGLVQAGGSLRLSCAASGFPVHYTHMHWYRQAPGKEREWVAAIASSGAYTVYADSVKGRFTISRDNAKNTVYLQMNSLKPEDTAVYYCNVKDWGTYNTYYDYWGQGTQVTVS
Consider B18, for which the binding result was “binds”.

B19: 63 (VHH)
VHH: QVQLVESGGGLVQAGGSLRLSCAASGFPVNAEIMFWYRQAPGKEREWVAAIKSAGTTTLYADSVKGRFTISRDNAKNTVYLQMNSLKPEDTAVYYCNVKDYGAQAHYYDYWGQGTQVTVS
Take B19: the binding result is reported as “binds”.

B20: 56 (VHH)
VHH: QVQLVESGGGLVQAGGSLRLSCAASGFPVEMWSMEWYRQAPGKEREWVAAIMSFGYQTWYADSVKGRFTISRDNAKNTVYLQMNSLKPEDTAVYYCNVKDAGNSKALYDYWGQGTQVTVS
For the molecule B20, the binding result is listed as “binds”.

B21: 40 (VHH)
VHH: QVQLVESGGGLVQAGGSLRLSCAASGFPVQGTWMEWYRQAPGKEREWVAAITSVGYRTYYADSVKGRFTISRDNAKNTVYLQMNSLKPEDTAVYYCNVKDEGAIAKNYDYWGQGTQVTVS
As for B21, the binding result is recorded as “binds”.

B22: 61 (VHH)
VHH: B21 VHH with G31H, T32E, V54Y, E101T, A103T, I104Y, A105Q, K106A, N107W
For the molecule B22, the binding result is “binds”.

B23: 54 (VHH)
VHH: B21 VHH with Q30W, G31N, V54Y, Y56F, R57K, A103N, I104S, A105Q, K106S, N107H
As to B23, the binding result is “binds”.

B24: 45 (VHH)
VHH: B21 VHH with Q30A, V54Y, A103K, I104S, A105S, K106Q, N107V
As to B24, the binding result is given as “binds”.

B25: 66 (VHH)
VHH: B21 VHH with V29E, Q30V, G31N, V54Y, A103S, I104Q, A105S, K106W, N107A
As to B25, the binding result was “binds”.

B26: 52 (VHH)
VHH: B21 VHH with Q30N, G31Y, T32N, V54W, R57K, A103M, I104W, A105Q, K106H, N107Y
B26: the binding result is recorded as “binds”.

B27: 71 (VHH)
VHH: QVQLVESGGGSVQAGGSLRLSCAASGNIQHIKYLGWFRQAPGREREGVAALMTRYGQTYYADSVKGRFTVSLDNAKNTVYLQMNSLKPEDTALYYCAAAHYGDNFPLAYQAYLYWGQGTQVTVS
B27: the binding result is reported as “binds”.

B28: 41 (VHH)
VHH: QVQLVESGGGLVQAGGSLRLSCAASGFPVEHQHMHWYRQAPGKEREWVAAIVSTGHYTIYADSVKGRFTISRDNAKNTVYLQMNSLKPEDTAVYYCNVKDWGDTSQYYDYWGQGTQVTVS
As to B28, the binding result is on record as “binds”.

B29: 50 (VHH)
VHH: B28 VHH with E30Q, H31Y, Q32E, T54E, H56A, I59H, D103W, T104L, S105A
As to B29, the binding result is “binds”.

B30: 43 (VHH)
VHH: B18 VHH with H30E, Y31W, T103S, Y104Q, N105D, T106R
With B30, the binding result is recorded as “binds”.

B31: 57 (VHH)
VHH: B28 VHH with Q32D, T54Q, H56A, I59V, D103R, T104A, S105G, Q106A, Y107R
In the case of B31, the binding result is “binds”.

B32: 69 (VHH)
VHH: QVQLVESGGGSVQAGGSLRLSCAASGYISEISYLGWFRQAPGKEREGVAALITGWGHTYYADSVKGRFTVSLDNAKNTVYLQMNSLKPEDTALYYCAAAQTGAWYPLETYIYHYWGQGTQVTVS
For B32, the binding result is “binds”.

B33: 51 (VHH)
VHH: QVQLVESGGGLVQAGGSLRLSCAASGFPVKETWMHWYRQAPGKEREWVAAITSFGYKTYYADSVKGRFTISRDNAKNTVYLQMNSLKPEDTAVYYCNVKDAGDVTHQYDYWGQGTQVTVS
With B33, the binding result was “binds”.
